Test results taken from patent publication US6693166 (HONG KONG UNIVERSITY OF SCIENCE AND TECHNOLOGY, dated 2004).

Molecular target: T1, GST-Cdk5.GST-Nck5a complex (Homo sapiens (Human), UniProt Q00535 1-292; Q15078 99-307)
T1 construct: also called Cdk5/Nck5a complex; Cdk5.Nck5a complex
Test: steady state kinase kinetics with histone H1 peptide as substrate, Dixon plot; noncompetitive with respect to the substrate
Experimental: Peptide Inhibition of Cdk5 and Cdk2 Kinase Activity—Cdk5 kinase activity was assayed essentially as described previously, except that for each Cdk5 kinase reaction 1 µg of GST-Cdk5 was reconstituted with 2 µg of GST-Nck5a, and 1 µg of GST-Cdk2 was mixed with 3 µg of cyclin A-H6 in Cdk2 assays. The reconstituted complexes were added, in duplicate, to an assay mixture containing 30 mM MOPS, pH 7.4, 10 mM MgCl_2, 40 µM of the histone H1 peptide, 50 µM [γ-^32P]ATP, and various concentrations of various peptides at 30° C. for 30 min before measuring the Cdk5 and Cdk2 kinase activities.
Steady State Kinetic Experiments—All assay conditions were the same as in the inhibition assay described above, except that the reaction time was kept at 15 min so that the product formed was less than 5% of the total substrate concentration used. To determine suitable concentrations of the substrate and the inhibitor for the steady state kinetic experiments, the K_m value of GST-Cdk5.GST-Nck5a complex and a concentration-dependent inhibition profile of the enzyme by the α_N peptide were determined. […]
Kinetic Analysis of Cdk5 Inhibition by the α_N Peptide—We also analyzed the kinetic properties of the α_N peptide with respect to the kinase substrate, the histone H1 peptide.

Ki: ~25 µM
B1: synthetic 28-residue Nck5a peptide corresponding to Ala146 to Asp173 of Nck5a (peptide)
peptide: ASTSELLRCLGEFLCRRCYRLKHLSPTD
notes: Chemically synthesised (Fmoc), purity above 95%; Gln145 of the recombinant 29-residue fragment was left out; also called αN peptide
